Experimental data as given in the supplement of paper PMC10567573.
± gives the standard deviation.

Assay: protein stability index of a GFP-peptide fusion (GPS, HEK-293T) (PSI 1-6); higher = more stable
[1] = treatment: DMSO, c terminus: a fixed tail appended
[2] = treatment: MLN4924 1 uM, 8 h, c terminus: a fixed tail appended
[3] = treatment: DMSO, c terminus: native
[4] = treatment: MLN4924 1 uM, 8 h, c terminus: native
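Further: 24-mer peptide tiles fused after GFP, lentivirally expressed, FACS-sorted into six equal bins by GFP/DsRed ratio, decoded by Illumina sequencing, PSI is the read-weighted mean bin number.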

Sequence	protein stability index [1]	protein stability index [2]	protein stability index [3]	protein stability index [4]
AEEYEDSSTKPPKSRRKAALSSPR [INTS3]	5.23 ± 0.12	5.27 ± 0.27	–	–
AYTQTQFHNLRNTLDGYGIHPKSI [NFE2L1]	2.57 ± 0.3	2.34 ± 0.26	–	–
KETLRLHPDIFLPSEICDRLVNEY [ZER1]	2.82 ± 0.39	2.83 ± 0.21	–	–
NRVSAIIFSLATEWVISTGHDKCV [WDFY1]	2.96 ± 0.23	2.89 ± 0.4	–	–
GQCVQAFETHESDINSVRYYPSGD [GNB5]	4.52 ± 0.12	4.46 ± 0.093	–	–
RSRDSNSGPEEPLLEEEEKQWGPL [RTN2]	5.05 ± 0.53	5.45 ± 0.53	–	–
EVDPTGHSFVLVTSLGLTYDGMLS [MAGEA10]	2.51 ± 0.47	2.52 ± 0.51	–	–
VFSTMAGLEEADAEVSVISEADPQ [FBF1]	5.18 ± 0.36	5.26 ± 0.25	–	–
LANRLCLPHLVALTEQYTVTGLME [RHOBTB2]	2.57 ± 0.6	2.43 ± 0.39	–	–
EHDAWFIFFMAAFAFSNGYLASLC [SLC29A1]	3.19 ± 0.5	3.25 ± 0.48	–	–
CHRRYSCAHCRAHLANHDDLISKS [YPEL3]	2.44 ± 0.46	2.81 ± 0.4	–	–
AQQDLAPDPDAWLRALGELLRRDL [FANCE]	3.11 ± 0.4	3.15 ± 0.3	–	–
AWKDDFALNSMLRRRFREKKKAIQ [YJU2B]	3.27 ± 0.36	3.37 ± 0.13	–	–
IGMPFNQLGTLAGSKYYNVEAMYC [SMG5]	2.36 ± 0.51	2.27 ± 0.3	–	–
CIMDDAINILQNEKSHQVLAQLLD [INTS4]	2.18 ± 0.21	2.37 ± 0.23	–	–
VAELFCRRCRRCVCALCPVLGAHR [TRIM14]	2.25 ± 0.1	2.49 ± 0.39	–	–
VHVIGVEEPSVGASMLFDIREST [ZNF8]	–	–	2.3 ± 0.27	2.38 ± 0.17
ELCHHVAEVWVSGTIFIRNVLLFK [RETREG3]	3.09 ± 0.67	2.81 ± 0.61	–	–
TREAVTEILGIEPDREKGFHLDVE [TSN]	4.62 ± 0.063	4.64 ± 0.12	–	–
SYSRGYSYHDGYGEALGRDHSEHL [RBMY1A1]	3.5 ± 0.28	3.38 ± 0.26	–	–
IHGFPWWPARVLDISLGQKEDGEP [PWWP2B]	3.05 ± 0.18	3.54 ± 0.4	–	–
LHDCAESGSLEILQLLLGCKARME [FEM1A]	2.41 ± 0.31	2.52 ± 0.29	–	–

Sequence	protein stability index [1]	protein stability index [2]	protein stability index [3]	protein stability index [4]
LQLEACGMRRKSLLTRKVICKSDA [GOLPH3]	2.95 ± 0.58	3.07 ± 0.43	–	–
FLTILPEELQSWVRGHHPKSGEEA [ZNF232]	3.7 ± 0.18	3.56 ± 0.35	–	–
KEILRTLQDVFCWLPLATLIDEKV [PPEF2]	2.46 ± 0.25	3.03 ± 0.57	–	–
EERAKAKHLARQLEEKDRVLKKQD [CHCHD3]	5.51 ± 0.14	5.42 ± 0.16	–	–
YLLHGLECVVAMHQAQLISKIPHI [EIF5]	3.37 ± 0.11	3 ± 0.25	–	–
QFQDLTGIESMDQCRHTLEQHNWN [FAF2]	3.1 ± 0.38	3.37 ± 0.13	–	–
RVAIAHYQDDPDLRFLLDQVQLGL [TSPAN10]	2.28 ± 0.25	2.36 ± 0.25	–	–
VPWLNLKKQDENEGIKVEDLLFIV [CEP70]	1.97 ± 0.42	2.26 ± 0.22	–	–
LQAQVQYQQQHEQQKKDLEILHQQ [SASS6]	4.73 ± 0.14	4.93 ± 0.19	–	–
HAIYSLSYPMRRSYRYKLLNWAYQ [STEAP1]	2.33 ± 0.71	2.63 ± 0.61	–	–
GQRFYSRVLSPLHRGPSGHTEASA	3.74 ± 0.045	3.79 ± 0.29	–	–
YVHWPYCEKRCSYCNFNKYIPRRL [RSAD1]	2.62 ± 0.51	2.45 ± 0.34	–	–
LTFFAFLHCWLNAFAEMLRFGDRM [SOAT1]	3.4 ± 0.23	2.9 ± 0.5	–	–
EEQVILTEKDLLEDGFGEHPFYHC [SAT1]	3.95 ± 0.24	4.15 ± 0.42	–	–
HQGHSDQHHHHHHHHHGRDFLLRA [RHOBTB2]	3.45 ± 0.11	3.65 ± 0.24	–	–
IWLAESVLDILTEQREWVLKSSIL [INTS3]	2.88 ± 0.82	2.6 ± 0.84	–	–
PEFIKVRENLRRIATLTSEEREL [FAM107A]	–	–	2.66 ± 0.5	3.35 ± 0.55
LTTFQDQLNRRGEFIQEIRRQLEA [OAS1]	3.3 ± 0.35	3.29 ± 0.27	–	–
TSGVAAVQDWYHFHYVDILALLPA [SCNN1D]	2.42 ± 0.44	2.35 ± 0.24	–	–
LCQHFEAVHSGTPVTNNLLEKCKT [SPACA9]	4.14 ± 0.13	4.19 ± 0.17	–	–
WKVRAEKEACQREKELPAAVHPFH [ZBED2]	3.9 ± 0.18	3.93 ± 0.15	–	–
CYRSQDYGGRSVAPQNSFSAKLAP [KCNK9]	3.04 ± 0.092	3.19 ± 0.36	–	–

Sequence	protein stability index [1]	protein stability index [2]	protein stability index [3]	protein stability index [4]
LSKEYWDCLEGKKSKHAPRGTHLW [ELF3]	2.82 ± 0.45	3.17 ± 0.24	–	–
HVKKLQQKVATLEKRNRQLRERVK [CCDC3]	3.72 ± 0.26	4 ± 0.61	–	–
ALNWTDIPVAMEHQPPYIIAVLPR [VPS39]	2.23 ± 0.38	2.25 ± 0.29	–	–
GDLSPGHGASAPSVSREARQTVPP [PWWP2B]	5.03 ± 0.17	5.25 ± 0.077	–	–
RARDSPEPGAGLGIGDMAFEGDMG [PSD2]	4.73 ± 0.13	4.91 ± 0.15	–	–
LKENNFQPYPLPHVRHMAYQLCHA [CLK3]	2.46 ± 0.12	2.21 ± 0.26	–	–
SFMLQDRAKGLLGTTVTFDDLMGI [FEM1C]	2.49 ± 0.24	2.66 ± 0.14	–	–
FVHGLEDEMYEVRIAAVEALCMLA [INTS4]	2.34 ± 0.61	2.23 ± 0.46	–	–
PPKIRLKPHRLGDSEHEPVYRAEL [PWWP2B]	4.02 ± 0.19	4.09 ± 0.095	–	–
RYVLKAGQTVTIWAANAGVTASPP [LMNB1]	3.62 ± 0.27	3.49 ± 0.24	–	–
ISENLDYEETGFYEIEIQAEDGGA [PCDHGA10]	4.74 ± 0.18	4.7 ± 0.2	–	–
FSGCLNCSKVSELTERLKVLEAKM [EMID1]	2.83 ± 0.29	2.926 ± 0.029	–	–
WLFGATAVALGGVALSVVIAARN [FKBP8]	–	–	2.51 ± 0.55	2.59 ± 0.4
LEEDLYELFKKDPGFDRGQFHKQI [PI4K2A]	3.56 ± 0.14	3.56 ± 0.19	–	–
RSEQSVKLRRQVIQVVLNGMESYQ [ZER1]	2.41 ± 0.13	2.32 ± 0.18	–	–
RKLNSRLFVIRGQPADVFPRLFKE [CRY1]	2.27 ± 0.38	2.09 ± 0.39	–	–
LFEGLGRDKAEELLQLPDTKVGSF [SLA]	3.82 ± 0.28	4.13 ± 0.15	–	–
LEEQLQGWGEVMLMADKVLRWERA [ARL6IP1]	2.49 ± 0.31	2.49 ± 0.27	–	–
NIPQMADTLFERATNSSWVVVFKA [SNAP91]	2.27 ± 0.65	2.3 ± 0.82	–	–
LTSADRETAEEVSARIVQVVTAEA [MAP2]	4.86 ± 0.28	4.89 ± 0.42	–	–
MSPYLVPDTQALCHHLPVIRQLAT [SMG5]	2.3 ± 0.28	2.52 ± 0.22	–	–
